From patent publication US20260144882A1 (BIO THERA SOLUTIONS, published 2026)

T1: human Nectin-4 extracellular antigen hNectin-4-His (human, UniProt Q96NY8 32-349)
T1 construct: C-terminal 8xHis tag included
T1 sequence: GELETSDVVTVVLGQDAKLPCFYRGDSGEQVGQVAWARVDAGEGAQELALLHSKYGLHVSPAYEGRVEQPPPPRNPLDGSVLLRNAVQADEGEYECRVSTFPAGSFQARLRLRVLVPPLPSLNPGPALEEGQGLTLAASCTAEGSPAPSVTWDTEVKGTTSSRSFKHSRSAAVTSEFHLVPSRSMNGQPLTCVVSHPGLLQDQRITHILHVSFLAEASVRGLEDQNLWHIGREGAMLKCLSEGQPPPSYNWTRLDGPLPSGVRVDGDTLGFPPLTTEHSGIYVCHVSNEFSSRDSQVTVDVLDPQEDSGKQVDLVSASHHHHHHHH


Target: T1, human Nectin-4 extracellular antigen …
Test: ELISA, phage scFv supernatant 1:50
Experimental: The supernatants were diluted 50-fold, and the binding OD values of the diluted supernatants to hNectin-4-His were measured by ELISA. The samples were serially 3-fold diluted, and the EC₅₀ titer for the binding of the supernatants to the antigen was measured by ELISA. […] The light chain variable region sequence is set forth in SEQ ID NO: 25. The OD value is the measurement of ELISA, and the EC₅₀ value denotes the EC₅₀ value of the binding activity titer of the supernatant to the antigen.

| Binder | OD value [OD] |
| --- | --- |
| 1F3-2F1 scFv (scFv, V domains shown, phage clone supernatant) VH: EVQLVESGGGLVQPGGSLRLSCAASGDIFTGYSMSWVRQAPGKGLEWVSGIYQTGSNTRYADSVKGRFTISRDNSKNTLYLQMNSLRAEDTAVYYCARAELLAFDVYTASDYWGQGTLVTVSS VL: DIQMTQSPSSLSASVGDRVTITCRASQGISSYLAWYQQKPGKAPKLLIYAASSLQSGVPSRFSGSGSGTDFTLTISSLQPEDFATYYCQQHYTTPPTFGQGTKVEIKR | 1.02 |
| 1G8-2D4 scFv (scFv, V domains shown, phage clone supernatant) VH: EVQLVESGGGLVQPGGSLRLSCAASGYNFGGYAMSWVRQAPGKGLEWVSRISGTSGNNDYADSVKGRFTISRDNSKNTLYLQMNSLRAEDTAVYYCARQTEDRSYGYDLDYWGQGTLVTVSS VL: DIQMTQSPSSLSASVGDRVTITCRASQGISSYLAWYQQKPGKAPKLLIYAASSLQSGVPSRFSGSGSGTDFTLTISSLQPEDFATYYCQQHYTTPPTFGQGTKVEIKR | 1.58 |
| 1F3-2F6 scFv (scFv, V domains shown, phage clone supernatant) VH: EVQLVESGGGLVQPGGSLRLSCAASGFTFSDYGMSWVRQAPGKGLEWVSRISQYGGGIRYADSVKGRFTISRDNSKNTLYLQMNSLRAEDTAVYYCARAELLAFDVYTASDYWGQGTLVTVSS VL: DIQMTQSPSSLSASVGDRVTITCRASQGISSYLAWYQQKPGKAPKLLIYAASSLQSGVPSRFSGSGSGTDFTLTISSLQPEDFATYYCQQHYTTPPTFGQGTKVEIKR | 1.52 |
| 1F3-2H12 scFv (scFv, V domains shown, phage clone supernatant) VH: EVQLVESGGGLVQPGGSLRLSCAASGDSFDSSGMSWVRQAPGKGLEWVSGIKWITGESYYADSVKGRFTISRDNSKNTLYLQMNSLRAEDTAVYYCARAELLAFDVYTASDYWGQGTLVTVSS VL: DIQMTQSPSSLSASVGDRVTITCRASQGISSYLAWYQQKPGKAPKLLIYAASSLQSGVPSRFSGSGSGTDFTLTISSLQPEDFATYYCQQHYTTPPTFGQGTKVEIKR | 1.59 |
| 1F3-2H6 scFv (scFv, V domains shown, phage clone supernatant) VH: EVQLVESGGGLVQPGGSLRLSCAASGYTFSSYGMSWVRQAPGKGLEWVSRIKSDGGDTHYADSVKGRFTISRDNSKNTLYLQMNSLRAEDTAVYYCARAELLAFDVYTASDYWGQGTLVTVSS VL: DIQMTQSPSSLSASVGDRVTITCRASQGISSYLAWYQQKPGKAPKLLIYAASSLQSGVPSRFSGSGSGTDFTLTISSLQPEDFATYYCQQHYTTPPTFGQGTKVEIKR | 1.31 |
| 1F3-2F3 scFv (scFv, V domains shown, phage clone supernatant) VH: EVQLVESGGGLVQPGGSLRLSCAASGFNFSDYGMSWVRQAPGKGLEWVSRIDWDGGNTRYADSVKGRFTISRDNSKNTLYLQMNSLRAEDTAVYYCARAELLAFDVYTASDYWGQGTLVTVSS VL: DIQMTQSPSSLSASVGDRVTITCRASQGISSYLAWYQQKPGKAPKLLIYAASSLQSGVPSRFSGSGSGTDFTLTISSLQPEDFATYYCQQHYTTPPTFGQGTKVEIKR | 1.57 |
| 1F3-2G10 scFv (scFv, V domains shown, phage clone supernatant) VH: EVQLVESGGGLVQPGGSLRLSCAASGFNFSNYGMSWVRQAPGKGLEWVSRIKPTDGSTHYADSVKGRFTISRDNSKNTLYLQMNSLRAEDTAVYYCARAELLAFDVYTASDYWGQGTLVTVSS VL: DIQMTQSPSSLSASVGDRVTITCRASQGISSYLAWYQQKPGKAPKLLIYAASSLQSGVPSRFSGSGSGTDFTLTISSLQPEDFATYYCQQHYTTPPTFGQGTKVEIKR | 1.54 |
| 1F3-2G9 scFv (scFv, V domains shown, phage clone supernatant) VH: EVQLVESGGGLVQPGGSLRLSCAASGFTFGGYGMSWVRQAPGKGLEWVSWISAWDGSIYYADSVKGRFTISRDNSKNTLYLQMNSLRAEDTAVYYCARAELLAFDVYTASDYWGQGTLVTVSS VL: DIQMTQSPSSLSASVGDRVTITCRASQGISSYLAWYQQKPGKAPKLLIYAASSLQSGVPSRFSGSGSGTDFTLTISSLQPEDFATYYCQQHYTTPPTFGQGTKVEIKR | 1.38 |
